{"source": "patent US20150148405A1", "about": "“Expression Construct for a Lin28-Resistant Let-7 Precursor MicroRNA” (THE JOHNS HOPKINS UNIVERSITY, priority 2012, published 2015)", "molecules": {"B1": {"name": "BDNF: brain-derived neurotrophic factor, a neurotrophin used to stimulate hippocampal neurons (protein, UniProt P23560 19-247, looked up)", "Neurotrophic factor BDNF …": "APMKEANIRGQGGLAYPGVRTHGTLESVNGPKAGSRGLTSLADTFEHVIEELLDEDQKVRPNEENNKDADLYTSRVMLSSQVPLEPPLLFLLEEYKNYLDAANMSMRVRRHSDPARRGELSVCDSISEWVTAADKKTAVDMSGGTVTVLEKVPVSKGQLKQYFYETKCNPMGYTKEGCRGIDKRHWNSQCRTTQSYVRALTMDSKKRIGWRFIRIDTSCVCTLTIKRGR"}}, "format_in_all_cases": "cell-based, mouse", "key": {"[1]": {"system": "hippocampal pyramidal neurons", "test": "Endogenous P-body numbers by GW182 immunostaining", "conditions": "75 min after stimulation; mock 11.36±1.21; p<0.05", "excerpt": "For fixed cells, confocal images were acquired in 0.3 μm (dendrites) or 1.7 μm (whole cells for arborization) Z sections on an LSM5 Pascal system (Carl Zeiss) using a 63×, 1.4 NA Plan Apochromat oil immersion objective and 2× optical zoom (dendrites) or using a 25×, 0.80 NA Plan-Neofluor multi-immersion objective and 0.7×-1× optical zoom (for whole cells). GFP was excited at 488 nm and emissions collected at 505-530 nm; mCherry was excited at 543 nm and emissions collected above 560 nm. Laser power and exposure time were adjusted to minimize photobleaching and avoid saturation. All experiments were from a minimum of 3 independent cultures and no more than 3 neurons per dish Z-stacks containing the entire neuron or process of interest were analyzed using Imaris 7.0.0 (Bitplane) and ImageJ software. […] The percent colocalization of P-body components was calculated by […]. The percent of colocalized fluorescence was calculated for each P-body component by first summing the aggregate fluorescence values that co-localized with the other P-body marker in ‘spots’, then dividing this quantity by the value of the total fluorescence intensity within the dendrite for that channel, and multiplying by 100. […]"}, "miR-17": {"system": "miR-17", "test": "Northern blot of control miRNA miR-17", "conditions": "BDNF-treated (30 min) neurons", "procedure": "Northern blots were carried out as described (Hwang et al., 2007), using the following LNA probes from Exiqon: Let-7a (5′ […] 3′; SEQ ID NO: 1), pre-Let-7a (5′ GTGGGTGTGACCCTA 3′; SEQ ID NO: 2), miR-17 (5′ […] 3′; SEQ ID NO: 3) and quantified by phosphoimaging."}, "[2]": {"system": "miRNA reporter (CXCR4 shRNA)", "test": "CXCR4 miRNA-reporter luciferase assay", "conditions": "BDNF stimulation, Actinomycin-D", "excerpt": "The following CXCR4 siRNA/miRNA reporter assay constructs (Addgene) were used: siRNA reporter (PCD FLIP, Plasmid 12567), miRNA reporter (PCD FL4X, 12565), control luciferase reporter (PCD FLOX, 12563), and CXCR4 shRNA (pLKO.1 puro CXCR4 siRNA-2, 12272) (Wang et al., 2006). Let-7 luciferase reporters with wild-type or mutated Let-7 miRNA binding sites were gifts from G. Hannon (Liu et al., 2005b). 3′UTR reporters were constructed by inserting 3′UTRs from GluR1, CaMKIIu or KCC2 downstream of luciferase in pGL3-Control vector (Promega). A Lin28-resistant Let-7 pre-miRNA was generated by mutation of the conserved Lin28 “GGAG” recognition motif to “GtAt” in the terminal loop of pLV-hsa-let-7a-1 (Biosettia). […]\n44 hours post-transfection, hippocampal cultures were treated with serum-reduced media (0.5% B27) and Actinomycin-D (0.5 ng/mL) as previously described, followed by BDNF stimulation 100 ng/mL for 4 hours. Cell lysates were collected in 1×lysis buffer (reporter lysis buffer, Promega), and luciferase (Promega) and chemiluminescent β-gal (Roche) reporter assays carried out according to manufacturer instructions using a plate-reading luminometer (Perkin Elmer). […] When required, fold change was calculated by dividing normalized stimulated samples by normalized unstimulated samples."}}}
{"molecule": "B1", "values": [{"measurement": "endogenous P-body numbers in individual neuronal dendrites, mean±SEM", "setting": "[1]", "result": "15.48±1.26"}, {"measurement": "mature miR-17 level", "setting": "miR-17", "result": "modestly increased"}, {"measurement": "miRNA-mediated suppression of miRNA reporter by shCXCR4", "setting": "[2]", "result": "greatly enhanced miRNA-mediated suppression"}]}
